This passage reports MFI results from patent US20240138384A1.

The assay concerns the target humanized CD47 polypeptide on red blood cells from humanized CD47 mice (human extracellular and transmembrane portions with mouse signal peptide portion and mouse intracytoplasmic tail) (UniProt Q08722). Briefly: flow cytometry on RBCs from humanized CD47 mice, isotype control (baseline). (In general: A flow cytometer gives signals particle by particle.)
UniProt Q08722, sequence (Q08722 other isoform, or with tags, fused parts or gaps limits assumed): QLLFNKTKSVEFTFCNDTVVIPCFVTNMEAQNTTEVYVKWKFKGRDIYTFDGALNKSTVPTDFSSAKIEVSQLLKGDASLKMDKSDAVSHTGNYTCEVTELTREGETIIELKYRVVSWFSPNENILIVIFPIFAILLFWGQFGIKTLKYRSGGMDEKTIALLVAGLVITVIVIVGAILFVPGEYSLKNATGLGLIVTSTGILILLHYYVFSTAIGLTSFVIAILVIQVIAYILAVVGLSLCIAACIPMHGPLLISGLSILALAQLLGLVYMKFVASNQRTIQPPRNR

Regarding Control, hIgG4 (antibody), the MFI is 112 MFI.

For Control, hIgG4s (antibody), the MFI came out at 112 MFI.
